Data published in paper PMC12117155 (Nature Communications, 2025).

Molecular target: randomly biotinylated GCase (Velaglucerase) (human, UniProt P04062, biotin, randomly on lysine residues (EZ-Link Sulfo-NHS-LC-Biotin); glycosylated)
Assay: BLI

Chain of randomly biotinylated GCase (Velaglucerase) (P04062 40-536): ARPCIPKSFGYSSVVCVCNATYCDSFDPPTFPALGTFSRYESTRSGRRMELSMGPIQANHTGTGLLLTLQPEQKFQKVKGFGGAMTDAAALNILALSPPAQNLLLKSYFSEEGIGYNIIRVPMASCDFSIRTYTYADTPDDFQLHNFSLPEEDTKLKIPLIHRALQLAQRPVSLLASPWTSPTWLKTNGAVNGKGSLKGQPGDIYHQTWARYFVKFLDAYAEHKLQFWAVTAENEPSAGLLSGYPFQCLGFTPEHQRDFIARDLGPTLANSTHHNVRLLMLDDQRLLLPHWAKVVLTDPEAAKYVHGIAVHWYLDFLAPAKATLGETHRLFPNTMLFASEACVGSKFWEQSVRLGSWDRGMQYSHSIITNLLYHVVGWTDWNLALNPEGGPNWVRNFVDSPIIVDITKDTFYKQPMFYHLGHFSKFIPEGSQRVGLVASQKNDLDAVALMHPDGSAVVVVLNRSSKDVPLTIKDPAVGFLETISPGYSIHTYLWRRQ

Kd: < 5 nM
B1: Nb1, C-terminally LPETGG-His6-EPEA-tagged (pHEN29) (VHH)
VHH: QVQLVESGGGLVQPGGSLRLSCAASGFTLDYYAIGWFRQAPGKEREGVSCISSSDGSTYYADSAKGRFTISRDNAKNTVYLQMNSLKPEDTAVYYCATDRGQCTYYSSGYYRDLRWYDYWGQGTQVTVSS
